Publication doi:10.1101/2023.06.09.544295 (bioRxiv, 2023)

Tests used:
[1] = test system: CMKLR1; parameters: method as in 4 sources, one per row (each row's own in cited_ref): ref [28] = [28]; PMID 25437209; doi:10.1371/journal.pone.0112925; 28 Graham K. L. A novel CMKLR1 small molecule antagonist suppresses CNS autoimmune inflammatory disease. PLoS One 9 , e112925 , doi: 10.1371/journal.pone.0112925 ( 2014 ). 25437209 PMC4249827 ||| ref [9] = [9]; PMID 25548799; doi:10.1007/s00011-014-0792-7; 9 Mariani F. & Roncucci L. Chemerin/chemR23 axis in inflammation onset and resolution. Inflamm Res 64 , 85 – 95 , doi: 10.1007/s00011-014-0792-7 ( 2015 ). 25548799 ||| ref [25]–[27] = [25]; PMID 17339491; doi:10.4049/jimmunol.178.6.3912; 25 Arita M. Resolvin E1 selectively interacts with leukotriene B4 receptor BLT1 and ChemR23 to regulate inflammation. J Immunol 178 , 3912 – 3917 , doi: 10.4049/jimmunol.178.6.3912 ( 2007 ). 17339491 || [26]; PMID 19906641; doi:10.1074/jbc.M109.044131; 26 Ohira T. Resolvin E1 receptor activation signals phosphorylation and phagocytosis. J Biol Chem 285 , 3451 – 3461 , doi: 10.1074/jbc.M109.044131 ( 2010 ). 19906641 PMC2823415 || [27]; PMID 25637017; doi:10.4049/jimmunol.1402166; 27 Herova M. , Schmid M. , Gemperle C. & Hersberger M. ChemR23, the receptor for chemerin and resolvin E1, is expressed and functional on M1 but not on M2 macrophages. J Immunol 194 , 2330 – 2337 , do ||| ref [2]–[5] = [2]; PMID 17635925; doi:10.1074/jbc.M700793200; 2 Goralski K. B. Chemerin, a novel adipokine that regulates adipogenesis and adipocyte metabolism. J Biol Chem 282 , 28175 – 28188 , doi: 10.1074/jbc.M700793200 ( 2007 ). 17635925 || [3]; PMID 17767914; doi:10.1016/j.bbrc.2007.08.104; 3 Roh S. G. Chemerin--a new adipokine that modulates adipogenesis via its own receptor. Biochem Biophys Res Commun 362 , 1013 – 1018 , doi: 10.1016/j.bbrc.2007.08.104 ( 2007 ). 17767914 || [4]; PMID 29848608; doi:10.1530/JOE-18-0174; 4 Helfer G. & Wu Q. F. Chemerin: a multifaceted adipokine involved in metabolic disorders. J Endocrinol 238 , R79 – R94 , doi: 10.1530/JOE-18-0174 ( 2018 ). 29848608 PMC6026924 || [5]; PMID 29279348; doi:10.1124/pr.116.013177; 5 Kennedy A. J. & Davenport A. P. International Union of Basic and Clinical Pharmacology CIII: Chemerin Receptors CMKLR1 (Chemerin(1)) and GPR1 (Chemerin(2)) Nomenclature, Pharmacology, and Function.; details: cited from earlier work
From the text: Other isoforms of chemerin due to cleavage at different sites of the C-terminal region have also been detected in vivo with ... || The apparent contradictory functional roles of CMKLR1 in inflammation may be associated with the spatiotemporal regulation of the inflammation processes in cells. It is possible that in the early stage of inflammation the CMKLR1 signaling is mainly pro-inflammatory by promoting chemotaxis and activation of DCs and macrophages; whereas at the late stage of inflammation CMKLR1 activation can induce pro-resolving pathways to dampen inflammation.

[2] = target: T1, wild type human CMKLR1 with the N-terminal 28-amino acid segment of human β2-adrenergic receptor fused to its … (Homo sapiens (Human), UniProt P07550); test: cryo-EM structure of co-purified complex; chemerin9 agonist, Gβ1γ2, scFv16 and apyrase (nucleotide-free); Gαi1 carries dominant negative mutations S47N/G203A/E245A/A326S
T1 chain: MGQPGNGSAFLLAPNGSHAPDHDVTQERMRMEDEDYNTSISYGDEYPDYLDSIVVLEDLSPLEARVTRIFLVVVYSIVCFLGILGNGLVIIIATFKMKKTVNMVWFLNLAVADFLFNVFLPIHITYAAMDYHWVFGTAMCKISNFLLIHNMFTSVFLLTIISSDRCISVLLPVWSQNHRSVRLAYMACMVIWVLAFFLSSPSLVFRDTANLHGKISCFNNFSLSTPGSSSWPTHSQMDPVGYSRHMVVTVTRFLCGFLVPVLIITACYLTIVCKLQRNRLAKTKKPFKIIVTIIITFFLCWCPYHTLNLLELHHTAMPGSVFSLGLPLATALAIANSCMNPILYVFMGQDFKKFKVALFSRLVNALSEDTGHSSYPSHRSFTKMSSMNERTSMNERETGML

[3] = test system: primary human macrophages; test: Macrophage differentiation assay, cell surface marker expression by flow cytometry; format: cell-based
From the text: HLA-DR is a class II major histocompatibility complex cell surface molecule, a signature cell marker for antigen presenting cells (APCs), while CD86 is a selective ligand for the costimulatory molecule CD28, the activation of which is indispensable for optimal T cell prime and activation; together, HLA-DR and CD86 are signature cell surface markers for the canonical M1-like macrophages. On the other hand, CD206, the mannose receptor (MMR), is a glycosylated surface protein belonging to the scavenger receptor family. Similarly, CD163, another member of the scavenger receptor family, is the receptor for hemoglobin-haptoglobin complex. The upregulation of CD206 and CD163 in macrophages has been associated with the anti-inflammatory and tissue-repair phenotype,[33].
To generate human peripheral blood-derived macrophages, buffy coat was isolated from leukapheresis cones by Ficoll-Paque centrifugation. Monocytes were enriched from human PBMC by CD14 beads positive selection (Miltenyi Biotec) and cultured in IMDM supplanted with 10% human AB serum (omega scientific, Cat# HS-20) for 7 days for them to differentiate to macrophages.
Differentiated macrophages were then replated to low-bind plate at 0.15 million cells per 24-well plate, in 500 µl medium overnight before stimulated with various condition. […] Data were acquired on Cytek Aurora flowcytometry, analysis on Flowjo. MFI quantifications were normalized to M0 condition, and statistically analyzed by 2-way ANOVA, with Dunnett’s multiple comparisons test, all groups were pair-analyzed with M0 group as reference.

[4] = MFI fold-change normalized to M0, chemerin9 10 ng/mL 72 hours, IFNg 10 ng/ml plus LPS 10 ng/ml, IL-10 10 ng/ml, n=4 donors, Fig. 1a

chemerin15: synthetic peptide corresponding to the 141–155 amino acid segment of chemerin (AGEDPHSFYFPGQFA; UniProt Q99969 141-155, looked up, fragment)
CMKLR1 agonism / anti-inflammatory effect (in words) ([1]; synthetic peptides, ref [9]): stable agonists of CMKLR1 that induce anti-inflammatory effects

C[N+](C)(C)CCC(=O)c1cccc2ccccc12.[I-] [α-NETA]
potency against CMKLR1 (antagonist) ([1]; small-molecule antagonist, ref [28]): low micromolar potency

CC[C@@H](O)/C=C/C=C\C[C@@H](O)/C=C/C=C/C=C\[C@@H](O)CCCC(=O)O [RvE1, resolvin E1]
action on CMKLR1 (in words) ([1]; ref [25]–[27]): suggested to act on CMKLR1 to promote the resolution of inflammation

B1: dominant negative form of human Gαi1 (DNGαi1) (protein)
chain: GCTLSAEDKAAVERSKMIDRNLREDGEKAAREVKLLLLGAGESGKNTIVKQMKIIHEAGYSEEECKQYKAVVYSNTIQSIIAIIRAMGRLKIDFGDSARADDARQLFVLAGAAEEGFMTAELAGVIKRLWKDSGVQACFNRSREYQLNDSAAYYLNDLDRIAQPNYIPTQQDVLRTRVKTTGIVETHFTFKDLHFKMFDVGAQRSERKKWIHCFEGVTAIIFCVALSDYDLVLAEDEEMNRMHASMKLFDSICNNKWFTDTSIILFLNKKDLFEEKIKKSPLTICYPEYAGSNTYEEAAAYIQCQFEDLNKRKDTKEIYTHFTCSTDTKNVQFVFDAVTDVIIKNNLKDCGLF
binding result [2]: binds

B2: IL-10: reference signal molecule to induce the M2-like macrophages (protein, UniProt P22301 19-178, looked up)
Interleukin-10: SPGQGTQSENSCTHFPGNLPNMLRDLRDAFSRVKTFFQMKDQLDNLLLKESLLEDFKGYLGCQALSEMIQFYLEEVMPQAENQDPDIKAHVNSLGENLKTLRLRLRRCHRFLPCENKSKAVEQVKNAFNKLQEKGIYKAMSEFDIFINYIEAYMTMKIRN
statistical significance of marker changes ([3]; 2-way ANOVA with Dunnett's multiple comparisons vs M0, n=4): statistically insignificant | CD86 expression (in words) [3, 4]: downregulation | CD163 expression (in words) [3, 4]: upregulation | CD206 expression (in words) [3, 4]: upregulation | macrophage phenotype (in words) ([3]; overall, chemerin9 10 ng/mL, 72 hours): consistent with an anti-inflammatory phenotype
